# Measurements: ChEMBL document CHEMBL3091431, “Aminopyridyl/Pyrazinyl Spiro[indoline-3,4'-piperidine]-2-ones As Highly Selective and Efficacious c-Met/ALK Inhibitors” (ACS Med Chem Lett, 2013)
# B1: ALK tyrosine kinase receptor (Homo sapiens), Q9UM73 (protein)
# chain: MGAIGLLWLLPLLLSTAAVGSGMGTGQRAGSPAAGPPLQPREPLSYSRLQRKSLAVDFVVPSLFRVYARDLLLPPSSSELKAGRPEARGSLALDCAPLLRLLGPAPGVSWTAGSPAPAEARTLSRVLKGGSVRKLRRAKQLVLELGEEAILEGCVGPPGEAAVGLLQFNLSELFSWWIRQGEGRLRIRLMPEKKASEVGREGRLSAAIRASQPRLLFQIFGTGHSSLESPTNMPSPSPDYFTWNLTWIMKDSFPFLSHRSRYGLECSFDFPCELEYSPPLHDLRNQSWSWRRIPSEEASQMDLLDGPGAERSKEMPRGSFLLLNTSADSKHTILSPWMRSSSEHCTLAVSVHRHLQPSGRYIAQLLPHNEAAREILLMPTPGKHGWTVLQGRIGRPDNPFRVALEYISSGNRSLSAVDFFALKNCSEGTSPGSKMALQSSFTCWNGTVLQLGQACDFHQDCAQGEDESQMCRKLPVGFYCNFEDGFCGWTQGTLSPHTPQWQVRTLKDARFQDHQDHALLLSTTDVPASESATVTSATFPAPIKSSPCELRMSWLIRGVLRGNVSLVLVENKTGKEQGRMVWHVAAYEGLSLWQWMVLPLLDVSDRFWLQMVAWWGQGSRAIVAFDNISISLDCYLTISGEDKILQNTAPKSRNLFERNPNKELKPGENSPRQTPIFDPTVHWLFTTCGASGPHGPTQAQCNNAYQNSNLSVEVGSEGPLKGIQIWKVPATDTYSISGYGAAGGKGGKNTMMRSHGVSVLGIFNLEKDDMLYILVGQQGEDACPSTNQLIQKVCIGENNVIEEEIRVNRSVHEWAGGGGGGGGATYVFKMKDGVPVPLIIAAGGGGRAYGAKTDTFHPERLENNSSVLGLNGNSGAAGGGGGWNDNTSLLWAGKSLQEGATGGHSCPQAMKKWGWETRGGFGGGGGGCSSGGGGGGYIGGNAASNNDPEMDGEDGVSFISPLGILYTPALKVMEGHGEVNIKHYLNCSHCEVDECHMDPESHKVICFCDHGTVLAEDGVSCIVSPTPEPHLPLSLILSVVTSALVAALVLAFSGIMIVYRRKHQELQAMQMELQSPEYKLSKLRTSTIMTDYNPNYCFAGKTSSISDLKEVPRKNITLIRGLGHGAFGEVYEGQVSGMPNDPSPLQVAVKTLPEVCSEQDELDFLMEALIISKFNHQNIVRCIGVSLQSLPRFILLELMAGGDLKSFLRETRPRPSQPSSLAMLDLLHVARDIACGCQYLEENHFIHRDIAARNCLLTCPGPGRVAKIGDFGMARDIYRASYYRKGGCAMLPVKWMPPEAFMEGIFTSKTDTWSFGVLLWEIFSLGYMPYPSKSNQEVLEFVTSGGRMDPPKNCPGPVYRIMTQCWQHQPEDRPNFAIILERIEYCTQDPDVINTALPIEYGPLVEEEEKVPVRPKDPEGVPPLLVSQQAKREEERSPAAPPPLPTTSSGKAAKKPTAAEISVRVPRGPAVEGGHVNMAFSQSNPPSELHKVHGSRNKPTSLWNPTYGSWFTEKPTKKNNPIAKKEPHDRGNLGLEGSCTVPPNVATGRLPGASLLLEPSSLTANMKEVPLFRLRHFPCGNVNYGYQQQGLPLEAATAPGAGHYEDTILKSKNSMNQPGP
# Compound: Nc1ncnc2c1ncn2[C@@H]1O[C@H](COP(=O)(O)OP(=O)(O)OP(=O)(O)O)[C@@H](O)[C@H]1O
# Experiment: Inhibition of human ALK (unknown origin) using poly[Glu:Tyr] as substrate by nanoliter kinase assay
protein,measurement,value
B1,Km,50 µM
